Blank lines part the entries; values can stand above or below the binder they belong to.
What was measured:
[1] = target: T1, His6-Smt3-Parkin (full-length human parkin, tag kept, labelled with RED-tris-NTA) (human, UniProt O60260 1-465, RED-tris-NTA dye bound to the His tag (Monolith His-Tag Labelling Kit RED-tris-NTA 2nd Generation)); assay: MST; His6-Smt3-Parkin constructs labelled with RED-tris-NTA; unlabelled partner in up to 16 1:1 serial dilutions (from 50 µM for Miro1^181-579); 25°C; PBS-T (PBS 1x, 0.05% Tween 20); 1:1 fit; conditions: both partners purified
T1 construct: human parkin, full-length; Used for MST only; source: E. coli BL21(DE3), purified; not shown: His6, N-terminal, kept; Smt3, N-terminal, kept
T1 sequence (O60260 whole entry): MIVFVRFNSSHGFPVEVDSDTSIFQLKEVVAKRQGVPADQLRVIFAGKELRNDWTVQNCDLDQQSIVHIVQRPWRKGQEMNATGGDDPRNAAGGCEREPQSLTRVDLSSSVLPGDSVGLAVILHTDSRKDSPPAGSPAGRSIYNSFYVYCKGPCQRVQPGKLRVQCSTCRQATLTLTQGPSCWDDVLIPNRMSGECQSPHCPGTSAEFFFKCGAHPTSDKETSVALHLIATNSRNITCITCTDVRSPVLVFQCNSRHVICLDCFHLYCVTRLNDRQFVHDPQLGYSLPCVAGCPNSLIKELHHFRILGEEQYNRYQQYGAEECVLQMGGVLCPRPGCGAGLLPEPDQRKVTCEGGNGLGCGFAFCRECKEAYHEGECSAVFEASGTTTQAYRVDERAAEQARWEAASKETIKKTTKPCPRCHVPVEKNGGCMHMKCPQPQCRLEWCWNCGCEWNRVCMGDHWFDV

[2] = target: T2, human parkin, full-length, affinity tag cleaved (human, UniProt O60260 1-465); assay: MST + ITC; parkin with CISD1 (Supplementary Fig. S2); the text names 'either MST or ITC' and does not tell which was used for CISD1; conditions: both partners purified
T2 construct: human parkin (RBR E3 ubiquitin ligase), full-length; the MST used the uncleaved His6-Smt3 form; also called unphosphorylated parkin; source: E. coli BL21(DE3), purified (Ni-NTA HisTrap FF, Ulp1 cleavage, gel filtration); not shown: His6, N-terminal, cleaved; Smt3, N-terminal, cleaved
T2 sequence (O60260 whole entry): as above

Kd [1]: > 100 µM
B1: Miro1^181-579 (near full-length, soluble construct of Miro1 that lacks only its GTPase1 domain) (domain or fragment, human, UniProt Q8IXI2 181-579, looked up)
chain: MKPACIKALTRIFKISDQDNDGTLNDAELNFFQRICFNTPLAPQALEDVKNVVRKHISDGVADSGLTLKGFLFLHTLFIQRGRHETTWTVLRRFGYDDDLDLTPEYLFPLLKIPPDCTTELNHHAYLFLQSTFDKHDLDRDCALSPDELKDLFKVFPYIPWGPDVNNTVCTNERGWITYQGFLSQWTLTTYLDVQRCLEYLGYLGYSILTEQESQASAVTVTRDKKIDLQKKQTQRNVFRCNVIGVKNCGKSGVLQALLGRNLMRQKKIREDHKSYYAINTVYVYGQEKYLLLHDISESEFLTEAEIICDVVCLVYDVSNPKSFEYCARIFKQHFMDSRIPCLIVAAKSDLHEVKQEYSISPTDFCRKHKMPPPQAFTCNTADAPSKDIFVKLTTMAMY
notes: source: E. coli BL21(DE3); purified as previously described by Kumar et al. [11]

Kd [2]: > 100 µM
B2: human CISD1 (residues 32-108), entire extramembranous portion (domain or fragment, UniProt Q9NZ45 32-108, looked up)
chain: KRFYVKDHRNKAMINLHIQKDNPKIVHAFDMEDLGDKAVYCRCWRSKKFPFCDGAHTKHNEETGDNVGPLIIKKKET
notes: human CISD1 (MitoNEET) lacking only its transmembrane domain, residues 32-108; also called MitoNEET; source: E. coli BL21(DE3) with FeCl3 in the media, purified (Ni-NTA, TEV cleavage, gel filtration); not shown: His6, N-terminal, cleaved

Source: PMC9022993, “Distinct phosphorylation signals drive acceptor versus free ubiquitin chain targeting by parkin” (Biochemical Journal, 2022)
